Measured values published in patent US20220153862A1 (CSPC MEGALITH BIOPHARMACEUTICAL, published 2022).
Where a chain is given by its changes, count along the chain named.

T1: TROP2 expressed on human cancer cell lines (human, UniProt P09758 27-323)
T1 construct: Endogenous TROP2 on human tumour cell lines; also called TROP2-expressing SKBR3 cells; HCC1954
T1 sequence: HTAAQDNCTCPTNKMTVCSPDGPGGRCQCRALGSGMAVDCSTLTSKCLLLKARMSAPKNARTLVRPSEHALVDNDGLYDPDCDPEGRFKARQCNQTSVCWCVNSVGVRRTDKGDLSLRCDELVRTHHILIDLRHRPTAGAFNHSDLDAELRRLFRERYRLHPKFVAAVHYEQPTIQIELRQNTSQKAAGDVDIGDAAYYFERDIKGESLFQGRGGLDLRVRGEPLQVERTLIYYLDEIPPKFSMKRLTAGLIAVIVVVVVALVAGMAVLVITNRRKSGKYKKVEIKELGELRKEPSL

T2: human Trophoblast cell surface antigen 2 (TROP2) (human, UniProt P09758 27-274, limits assumed)
T2 construct: Analyte in the SPR experiments and immunogen; also called human TROP2
T2 sequence: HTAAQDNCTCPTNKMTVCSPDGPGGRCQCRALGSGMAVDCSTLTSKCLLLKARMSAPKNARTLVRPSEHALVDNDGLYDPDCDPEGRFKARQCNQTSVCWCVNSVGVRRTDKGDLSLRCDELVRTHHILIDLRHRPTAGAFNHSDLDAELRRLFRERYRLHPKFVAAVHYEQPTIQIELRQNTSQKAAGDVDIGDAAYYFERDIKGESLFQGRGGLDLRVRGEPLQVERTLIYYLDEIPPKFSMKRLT

B1: anti-TROP2 antibody 1B3 (antibody, V domains shown)
VH: QVQLQQSGAELVRPGVSVKISCKGSGYTFTDYSINWVKQSHAKSLEWIGVISTYYGDASYNQKFKGKATMTVDKSSSTAYMELARLTSEDSAIYYCARYGDGYNQFDYWGQGTTLTVSS
VL: DIVLTQSPASLAVSLGQRATISCRVSESVDSYGNNFMHWYQQKPGQPPKLLIYRASNLESGVPARFSGSGSGTDFTLTINPMEADDVATYYCQQSYEDPYTFGGGTKLEIK
notes: Mouse anti-human TROP2 hybridoma antibody
B2: anti-TROP2 antibody 15D9 (antibody, V domains shown)
VH: QVQLQQSGAELVRPGVSVKISCKGSGYTFTDYSIHWVKQSHAKSLEWIGVISSYYGDATYNQKFKGKATMTVDKSSSTAYMELARLTSEDSAIYYCALLGAYNYFDYWGQGTTLTVSS
VL: B1 VL with V25A, N35S, I52V, V62I, G72R, M82V, Y100P
notes: as for B1
B3: anti-TROP2 antibody 15A10 (antibody, V domains shown)
VH: EVQLEQSGPGLVQPSQSLSITCTVSGFSLTRYGVHWVRQSPGRSLEWLGVIWSGGNTDYNAAFISRLTITKDNSKSQVFFKMNSLQPNDTGVYYCAREDRYVGEFAYWGQGTLVTVSA
VL: B1 VL with P8T, V25A, N35S, M37I, V62I, G72R, M82V, Y96N, Y100R
notes: as for B1
B4: anti-TROP2 antibody 17B6 (antibody, V domains shown)
VH: QVQLQQSGAELVRPGVSVKISCKGSGYTFTDYGMNWVKQSHAKSLEWIGVISTFYGDANYNQKFKGKATMTVDKSSSTAYMELARLTSEDSAIYYCARRGNYDSMDYWGQGTSVTVSS
VL: B1 VL with A9V, S10F, V25A, N35S, V62I, G72R, M82V, A88E, Y100P, K111E
notes: as for B1
B5: anti-TROP2 antibody 17D1 (antibody, V domains shown)
VH: B2 VH with V50L, S53T, N61T
VL: B1 VL with V25A, N35S, I52V, V62I, G72R, M82V, V87I, Y100P
notes: as for B1
B6: HC1/LC5 (antibody, human IgG1, kappa, V domains shown)
VH: QVQLVQSGAEVKKPGASVKVSCKASGYTFTDYSINWVRQAPGQGLEWMGVISTYYGDASYNQKFKGRVTMTTDTSTSTAYMELRSLRSDDTAVYYCARYGDGYNQFDYWGQGTMVTVSS
VL: DIQMTQSPSSLSASVGDRVTITCRVSESVDSYGNNFMHWYQQKPGKAPKLLIYRASNLESGVPSRFSGSGSGTDFTFTISSLQPEDIATYYCQQSYEDPYTFGGGTKLEIKR
notes: Humanized anti-TROP2 antibody; also called DP002-HC1LC5
B7: HC4/LC5 (antibody, human IgG1, kappa, V domains shown)
VH: B6 VH with A16S, M70I, T72A, T74E, R84S, D89E, M114L
VL: B6 VL
notes: Humanized anti-TROP2 antibody; also called DP002-HC4LC5; DP002HC4LC5
B8: HC1/LC1 (antibody, human IgG1, kappa, V domains shown)
VH: B6 VH
VL: DIVMTQSPDSLAVSLGERATINCRVSESVDSYGNNFMHWYQQKPGQPPKLLIYRASNLESGVPDRFSGSGSGTDFTLTISSLQAEDVAVYYCQQSYEDPYTFGQGTKLEIKR
notes: Humanized anti-TROP2 antibody; also called DP002-HC1LC1
B9: biosimilar of the anti-TROP2 antibody sacituzumab (antibody, INN chains, looked up, V domains shown)
VH: QVQLQQSGSELKKPGASVKVSCKASGYTFTNYGMNWVKQAPGQGLKWMGWINTYTGEPTYTDDFKGRFAFSLDTSVSTAYLQISSLKADDTAVYFCARGGFGSSYWYFDVWGQGSLVTVSS
VL: DIQLTQSPSSLSASVGDRVSITCKASQDVSIAVAWYQQKPGKAPKLLIYSASYRYTGVPDRFSGSGSGTDFTLTISSLQPEDFAVYYCQQHYITPLTFGAGTKVEIKR
modifications: biosimilar
B10: HC5/LC1 (antibody, human IgG1, kappa, V domains shown)
VH: EVQLVQSGAEVKKPGESLKISCKGSGYTFTDYSINWVRQMPGKGLEWMGVISTYYGDASYNQKFKGQVTISADKSISTAYLQWSSLKASDTAMYYCARYGDGYNQFDYWGQGTLVTVSS
VL: B8 VL
notes: Humanized anti-TROP2 antibody
B11: HC5/LC4 (antibody, human IgG1, kappa, V domains shown)
VH: B10 VH
VL: EIVLTQSPATLSLSPGERATLSCRVSESVDSYGNNFMHWYQQKPGQAPRLLIYRASNLESGIPARFSGSGSGTDFTLTISSLEPEDFAVYYCQQSYEDPYTFGGGTKVEIKR
notes: Humanized anti-TROP2 antibody

Assays:
[1] = biological target: T1, TROP2 expressed on human cancer cell …; assay: flow cytometry of SKBR3 cells after overnight incubation with the antibody pre-mixed with pHAb-labelled secondary antibody (internalization assay); x axis pHAb-A, y axis Count
Procedure: FACS experiments were performed to verify that antibodies 1B3, 15D9, 15A10, 17B6, and 17D1 were internalized by SKBR3 cells. SKBR3 is a TROP2-expressing human breast carcinoma cell line. Briefly, 1.2×10⁵ SKBR3 cells were seeded into each 12-well plates and cultured overnight. 300 μL of 20 nM control antibody, 1B3, 15D9, 15A10, 17B6, or 17D1 (in DMEM-10) were mixed with 300 μL 60 nM pHAb-labelled secondary antibody for 15 minutes at room temperature in the dark. The labeled antibodies mixtures were added to the SKBR3 cells and incubated overnight. Following overnight incubation, the SKBR3 cells were trypsinized, washed twice with 1% BSA/PBS, and analyzed via flow cytometry.

[2] = biological target: T2, human Trophoblast cell surface antigen …; assay: SPR affinity ranking, human TROP2
[3] = biological target: T2, human Trophoblast cell surface antigen …; assay: SPR, TROP2 as analyte
[4] = biological target: T1, TROP2 expressed on human cancer cell …; assay: cell-based or functional assay
[5] = biological target: T1, TROP2 expressed on human cancer cell …; assay: cell-based or functional assay; remark: listed apart in the source
[6] = biological target: human Trophoblast cell surface antigen 2 (TROP2) (human) (UniProt P09758); assay: SPR, TROP2 as analyte

| Binder | binding result [1] | Kd [2] | koff [2] | kon [2] | further results |
| --- | --- | --- | --- | --- | --- |
| B1 | binds |  |  |  |  |
| B2 | binds |  |  |  |  |
| B3 | binds |  |  |  |  |
| B4 | binds |  |  |  |  |
| B5 | binds |  |  |  |  |
| B6 |  | 0.107 nM | 0.000149 s⁻¹ | 1.39e+06 M⁻¹ s⁻¹ | Kd [3]: 0.0577 nM; koff [3]: 0.000104 s⁻¹; kon [3]: 1.81e+06 M⁻¹ s⁻¹ |
| B7 |  | 0.0801 nM | 0.000138 s⁻¹ | 1.72e+06 M⁻¹ s⁻¹ | IC50 (nM), in vitro cytotoxicity, BxPC-3 cells [4]: > 100 nM; IC50 (nM), in vitro cytotoxicity, HCC1954 cells [4]: > 100 nM; IC50 (nM), in vitro cytotoxicity, NCI-N87 cells [4]: > 100 nM; Kd [3]: 0.0184 nM; koff [3]: 4.05e-05 s⁻¹; kon [3]: 2.2e+06 M⁻¹ s⁻¹ |
| B8 |  | 0.0645 nM | 0.000105 s⁻¹ | 1.63e+06 M⁻¹ s⁻¹ | Kd [3]: 0.0662 nM; koff [3]: 0.00013 s⁻¹; kon [3]: 1.97e+06 M⁻¹ s⁻¹; IC50 (nM), in vitro cytotoxicity, HCC38 cells [5]: > 100 nM; IC50 (nM), in vitro cytotoxicity, MDA-MB-468 cells [5]: > 100 nM |
| B9 |  |  |  |  | Kd [6]: 0.4 nM; koff [6]: 0.000204 s⁻¹; kon [6]: 511000 M⁻¹ s⁻¹ |
| B10 |  | 0.147 nM | 0.000235 s⁻¹ | 1.6e+06 M⁻¹ s⁻¹ |  |
| B11 |  | 0.22 nM | 0.000299 s⁻¹ | 1.36e+06 M⁻¹ s⁻¹ |  |
